Legend:
[1] = system: various anti-gD2 antibodies; assay: Reactivity of gD variants with anti-gD2 antibodies (competitive ELISA); type: binding, human; settings: for Relative reactivity with antibody No. 82 (gD1-315 wild-type set to 1): FIG. 13; for Reactivity with anti-gD2 antibody 1 / Reactivity with anti-gD2 antibody 5 / Reactivity with anti-gD2 antibody 13 / Reactivity with anti-gD2 antibody 72 / Reactivity with anti-gD2 antibody 75 / Reactivity with anti-gD2 antibody 78 / Reactivity with anti-gD2 antibody 82: immobilized gD variant
From the text: Each anti-gD2 monoclonal antibody and each gD variant were expressed using an Expi293 expression system.

[2] = system: HSV-2 MS strain; assay: Mouse infection-prevention test of modified gD (genital herpes infection model); type: in vivo, BALB/c mice; set-up: key to Determination (vs gD1-315) / Determination# (vs gD1-315): ++: minimum effective dose based on the Significant difference test in three-fold common ratio relative to gD1-315(WT) of two or more doses stronger; +: those of one dose stronger; ±: those of an equivalent value
Protocol: Immunogenicity test of the modified gD antigen was performed using the wild-type gD antigen gD1-315 (WT) as a positive control and saline as a negative control. A predetermined amount of antigen was dissolved in saline for injection (saline) with MPLA (10 μg/mouse) and CpG (1 μg/mouse) and immunized to mice at a volume of 200 μL/mouse. BALB/c mice (5 weeks old, female) were used for the study and immunized subcutaneously in back at 2-week intervals for a total of 3 times (N=4 cases per group). Two weeks after the final immunization (third dose), blood was collected and serum was prepared for each individual. The prepared serum was serially diluted and assessed for neutralizing antibody-inducing activity against HSV-2 (50% plaque number-reducing activity).
An infection-prevention test in the preventive administration of modified gD antigen was performed using a mouse genital herpes infection model. Similar to the mouse immunogenicity test described above, mice were immunized with the number of N=10 cases per group. Depo-Provera was inoculated subcutaneously at 2 mg/mouse 6 days prior to viral inoculation to improve the multiplicity of infection upon viral inoculation 2 weeks after final immunization (third dose). 5×10^5 PFU/20 μL HSV-2 MS strain was inoculated transvaginally under anesthesia and observed for 21 days. Infection prevention ability was evaluated using survival time (survival rate) as index.
The infection model of the mouse genital herpes infection model was used to evaluate infection prevention ability of various modified gD in preventive administration. The number of animal cases in each group was set to n=10, and wild-type gD (gD1-315) was used as a positive control and saline was used as a negative control. The experiments were performed a total of four times (experiments 1-4) and four doses of 0.1 μg/mouse/time, 0.03 μg/mouse/time, 0.01 μg/mouse/time and 0.003 μg/mouse/time were set for all of the positive control, negative control, and subject modified gD antigen. Depo-Provera was inoculated subcutaneously at 2 mg/mouse 6 days prior to viral inoculation to improve the multiplicity of infection upon viral inoculation 2 weeks after final immunization (third dose). 5×10^5 PFU/20 HSV-2 MS strain was inoculated transvaginally under anesthesia and observed for 21 days. Infection prevention ability was evaluated using survival time (survival rate) as index. Mean values of those were plotted in the graph. A Significant difference test for the negative control group was performed by the Kaplan-Meier method, and those with a minimum effective dose based on the Significant difference test in three-fold common ratio relative to wild type gD of two or more doses stronger were determined to be “++”, those of one dose stronger were determined to be “+”, and those of an equivalent value were determined to be “±”.

[3] = Experiment 2, 0.003 μg/head/time
[4] = Experiment 2, 0.01 μg/head/time
[5] = Experiment 2, 0.03 μg/head/time
[6] = Experiment 1, 0.003 μg/head/time
[7] = Experiment 1, 0.01 μg/head/time
[8] = Experiment 1, 0.03 μg/head/time
[9] = Experiment 4, 0.01 μg/head/time
[10] = Experiment 4, 0.03 μg/head/time
[11] = Experiment 4, fourth dose line, 0.03 μg/head/time

Molecule | Relative reactivity with antibody No. 82 (gD1-315 wild-type set to 1) [1] | Reactivity with anti-gD2 antibody 1 [1] | Reactivity with anti-gD2 antibody 5 [1] | Reactivity with anti-gD2 antibody 13 [1] | Reactivity with anti-gD2 antibody 72 [1] | Reactivity with anti-gD2 antibody 75 [1] | Reactivity with anti-gD2 antibody 78 [1] | Reactivity with anti-gD2 antibody 82 [1] | also measured
gD1-315v3-55V: Table 12: glycochain D, F, T cell epitope peptide and V231W (protein, left off: small tags and cut ends) KYALADPSLKMADPNRFRGKNLPVLDQLTDPPGVKRVYHIQPSLEDPFQNASIPITVYYAVLERACRSVLLHAPSEAPQIVRGASDEARKHTYNLTIAWYRMGDNCAIPITVMEYTECPYNKSLGVCPIRTQPRWSYYDSFSAVSEDNLGFLMHAPAFETAGTYLRLVKINDWTEITQFILEHRARASCKYALPLRIPPAACLTSKAYQQGVTVDSIGMLPRFIPENQRTWALYSLKIAGWHGPKPPYTSTLLPPELSDTTNATQPELVPEDPEDSALLEDPAGTVSSQIPPNWHIPSIQDVAPHHAPAAPSNPGGPGPGIAFWVRRRAQMAPKPLRIAFWVRRRAQMAPKPLRHHHHHH | slightly reduced | + ((+): 70% or more) | − ((−): less than 30%) | + ((+): 70% or more) | ± ((±): 30% or more and less than 70%) | ± ((±): 30% or more and less than 70%) | − ((−): less than 30%) | + ((+): 70% or more) | Mean survival time [2, 3]: 7 days; Significant difference test (vs saline) [2, 3]: N.S.; Mean survival time [2, 4]: >16.5 days; Significant difference test (vs saline) [2, 4]: N.S.; Mean survival time [2, 5]: >22 days; Significant difference test (vs saline) [2, 5]: ** (** 0.001 = < p < 0.01); Mean survival time ([2]; Experiment 2, 0.1 μg/head/time): >22 days; Significant difference test (vs saline) ([2]; Experiment 2, 0.1 μg/head/time): *** (*** p < 0.001); Determination# (vs gD1-315) ([2]; Experiment 2, minimum effective dose relative to gD1-315(WT)): +
gD1-315v5-55V: gD1-315 with glycochains at SC-A, SC-F, T cell epitope peptide DP5 and V231W (protein, left off: small tags and cut ends) KYALADPSLKMADPNRFRGKNLPVLDQLTDPPGVKRVYHIQPSLEDPFQNASIPITVYYAVLERACRSVLLHAPSEAPQIVRGASDEARKHTYNLTIAWYRMGDNCAIPITVMEYTECPYNKSLGVCPIRTQPRWSYYDSFSAVSEDNLGFLMHAPAFETAGTYLRLVKINDWTEITQFILEHRANASCKYALPLRIPPAACLTSKAYQQGVTVDSIGMLPRFIPENQRTWALYSLKIAGWHGPKPPYTSTLLPPELSDTTNATQPELVPEDPEDSALLEDPAGTVSSQIPPNWHIPSIQDVAPHHAPAAPSNPGGPGPGIAFWVRRRAQMAPKPLRIAFWVRRRAQMAPKPLRHHHHHH | slightly reduced | + ((+): 70% or more) | − ((−): less than 30%) | + ((+): 70% or more) | + ((+): 70% or more) | − ((−): less than 30%) | − ((−): less than 30%) | + ((+): 70% or more) | Mean survival time [2, 6]: 10 days; Significant difference test (vs saline) [2, 6]: ** (** 0.001 = < p < 0.01); Mean survival time [2, 7]: >21 days; Significant difference test (vs saline) [2, 7]: *** (*** p < 0.001); Mean survival time [2, 8]: >21 days; Significant difference test (vs saline) [2, 8]: *** (*** p < 0.001); Mean survival time ([2]; Experiment 1, 0.1 μg/head/time): >21 days; Significant difference test (vs saline) ([2]; Experiment 1, 0.1 μg/head/time): *** (*** p < 0.001); Determination (vs gD1-315) ([2]; Experiment 1, minimum effective dose relative to gD1-315(WT)): ++; Mean survival time [2, 9]: >21 days; Significant difference test (vs saline) [2, 9]: * (* 0.01 = < p < 0.05); Mean survival time [2, 10]: >21 days; Significant difference test (vs saline) [2, 10]: *** (*** p < 0.001); Mean survival time ([2]; Experiment 4, 0.1 μg/head/time): >21 days; Significant difference test (vs saline) ([2]; Experiment 4, 0.1 μg/head/time): *** (*** p < 0.001); Mean survival time [2, 11]: 8.5 days; Significant difference test (vs saline) [2, 11]: N.S.; Determination# (vs gD1-315) ([2]; Experiment 4, minimum effective dose relative to gD1-315(WT)): ++
gD1-315V (protein) KYALADPSLKMADPNRFRGKNLPVLDQLTDPPGVKRVYHIQPSLEDPFQPPSIPITVYYAVLERACRSVLLHAPSEAPQIVRGASDEARKHTYNLTIAWYRMGDNCAIPITVMEYTECPYNKSLGVCPIRTQPRWSYYDSFSAVSEDNLGFLMHAPAFETAGTYLRLVKINDWTEITQFILEHRARASCKYALPLRIPPAACLTSKAYQQGVTVDSIGMLPRFIPENQRTWALYSLKIAGWHGPKPPYTSTLLPPELSDTTNATQPELVPEDPEDSALLEDPAGTVSSQIPPNWHIPSIQDVAPHHAPAAPSNPGHHHHHH | – | + ((+): 70% or more) | + ((+): 70% or more) | + ((+): 70% or more) | + ((+): 70% or more) | + ((+): 70% or more) | + ((+): 70% or more) | + ((+): 70% or more) | –
gD1-315v3: gD1-315 with glycochain introduced at P50 (SC-F) (protein) KYALADPSLKMADPNRFRGKNLPVLDQLTDPPGVKRVYHIQPSLEDPFQNASIPITVYYAVLERACRSVLLHAPSEAPQIVRGASDEARKHTYNLTIAWYRMGDNCAIPITVMEYTECPYNKSLGVCPIRTQPRWSYYDSFSAVSEDNLGFLMHAPAFETAGTYLRLVKINDWTEITQFILEHRARASCKYALPLRIPPAACLTSKAYQQGVTVDSIGMLPRFIPENQRTVALYSLKIAGWHGPKPPYTSTLLPPELSDTTNATQPELVPEDPEDSALLEDPAGTVSSQIPPNWHIPSIQDVAPHHAPAAPSNPGHHHHHH | – | + ((+): 70% or more) | − ((−): less than 30%) | + ((+): 70% or more) | − ((−): less than 30%) | − ((−): less than 30%) | − ((−): less than 30%) | + ((+): 70% or more) | –
gD1-315v5V: gD1-315 with glycochains at SC-A, SC-F and V231W (protein) KYALADPSLKMADPNRFRGKNLPVLDQLTDPPGVKRVYHIQPSLEDPFQNASIPITVYYAVLERACRSVLLHAPSEAPQIVRGASDEARKHTYNLTIAWYRMGDNCAIPITVMEYTECPYNKSLGVCPIRTQPRWSYYDSFSAVSEDNLGFLMHAPAFETAGTYLRLVKINDWTEITQFILEHRANASCKYALPLRIPPAACLTSKAYQQGVTVDSIGMLPRFIPENQRTWALYSLKIAGWHGPKPPYTSTLLPPELSDTTNATQPELVPEDPEDSALLEDPAGTVSSQIPPNWHIPSIQDVAPHHAPAAPSNPGHHHHHH | – | + ((+): 70% or more) | − ((−): less than 30%) | + ((+): 70% or more) | ± ((±): 30% or more and less than 70%) | ± ((±): 30% or more and less than 70%) | − ((−): less than 30%) | + ((+): 70% or more) | –
